Measured values as given in publication PMC4943950, “T4 Phage Tail Adhesin Gp12 Counteracts LPS-Induced Inflammation In Vivo” (Frontiers in Microbiology, 2016).

Molecular target: the molecule itself
Test: SDS-PAGE of the non-heated sample (SDS-resistant oligomer); purified gp12 final preparation, not heated before SDS-PAGE, ambient temperature; trimer band at 172.5 kDa

B1: T4 phage short tail fiber protein (tail adhesin) gp12, recombinant, His-tagged (natural protein, bacteriophage T4, UniProt P10930 1-527, looked up)
chain: MSNNTYQHVSNESRYVKFDPTDTNFPPEITDVQAAIAAISPAGVNGVPDASSTTKGILFIPTEQEVIDGTNNTKAVTPATLATRLSYPNATETVYGLTRYSTNDEAIAGVNNESSITPAKFTVALNNAFETRVSTESSNGVIKISSLPQALAGADDTTAMTPLKTQQLAIKLIAQIAPSETTATESDQGVVQLATVAQVRQGTLREGYAISPYTFMNSSSTEEYKGVIKLGTQSEVNSNNASVAVTGATLNGRGSTTSMRGVVKLTTTAGSQSGGDASSALAWNADVIQQRGGQIIYGTLRIEDTFTIANGGANITGTVRMTGGYIQGNRIVTQNEIDRTIPVGAIMMWAADSLPSDAWRFCHGGTVSASDCPLYASRIGTRYGGNPSNPGLPDMRGLFVRGSGRGSHLTNPNVNGNDQFGKPRLGVGCTGGYVGEVQIQQMSYHKHAGGFGEHDDLGAFGNTRRSNFVGTRKGLDWDNRSYFTNDGYEIDPESQRNSKYTLNRPELIGNETRPWNISLNYIIKVKE
notes: No step that removes the His-Tag is described; also called phage adhesin
stoichiometry N: 3
